Measurements taken from publication PMC8042168, “The cell surface hyaluronidase TMEM2 regulates cell adhesion and migration via degradation of hyaluronan at focal adhesion sites” (The Journal of Biological Chemistry, 2021).

Target: T1, recombinant human α5β1 ECD heterodimer (human, UniProt P08648 42-995; P05556 21-728)
T1 construct: integrin α5, human, extracellular domain; integrin β1, human, extracellular domain; also called recombinant heterodimer of integrin ECD (α5β1); source: bought: R&D Systems (3230-A5-050)
Experiment: pull-down; TMEM2–ECD-His6 (about 5 μg/20 μl) held on ProBond nickel chelating resin; 2 μg recombinant integrin ECD heterodimer incubated in HBSS++ overnight at 4 °C; control unbound resin; blots
Conditions: both partners purified

T1 sequence (P08648 42-995, chain 1 of 2): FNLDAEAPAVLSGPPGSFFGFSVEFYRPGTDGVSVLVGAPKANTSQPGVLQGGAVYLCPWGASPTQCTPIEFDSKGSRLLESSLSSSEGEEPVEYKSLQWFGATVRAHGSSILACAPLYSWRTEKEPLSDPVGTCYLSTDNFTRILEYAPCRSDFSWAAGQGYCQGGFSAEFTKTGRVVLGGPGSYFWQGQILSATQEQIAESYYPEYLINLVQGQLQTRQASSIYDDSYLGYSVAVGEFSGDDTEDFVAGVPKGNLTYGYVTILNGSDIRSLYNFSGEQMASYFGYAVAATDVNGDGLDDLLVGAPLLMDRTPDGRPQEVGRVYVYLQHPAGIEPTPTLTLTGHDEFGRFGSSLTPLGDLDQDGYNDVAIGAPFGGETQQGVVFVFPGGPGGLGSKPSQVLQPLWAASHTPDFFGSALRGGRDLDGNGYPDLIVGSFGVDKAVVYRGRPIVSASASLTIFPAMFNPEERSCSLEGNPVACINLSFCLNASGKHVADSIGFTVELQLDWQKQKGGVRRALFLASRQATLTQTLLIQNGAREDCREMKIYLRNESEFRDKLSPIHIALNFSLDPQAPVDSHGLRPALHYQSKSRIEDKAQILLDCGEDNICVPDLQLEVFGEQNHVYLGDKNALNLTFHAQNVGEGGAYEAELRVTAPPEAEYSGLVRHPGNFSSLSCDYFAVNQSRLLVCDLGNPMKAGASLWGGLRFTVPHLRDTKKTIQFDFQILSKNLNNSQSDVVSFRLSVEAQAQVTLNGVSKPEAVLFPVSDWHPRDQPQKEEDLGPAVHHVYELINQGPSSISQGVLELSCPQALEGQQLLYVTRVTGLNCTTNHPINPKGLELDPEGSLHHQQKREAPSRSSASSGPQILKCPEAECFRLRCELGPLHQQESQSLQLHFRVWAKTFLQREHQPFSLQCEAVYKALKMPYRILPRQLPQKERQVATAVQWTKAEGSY
T1 sequence (P05556 21-728, chain 2 of 2): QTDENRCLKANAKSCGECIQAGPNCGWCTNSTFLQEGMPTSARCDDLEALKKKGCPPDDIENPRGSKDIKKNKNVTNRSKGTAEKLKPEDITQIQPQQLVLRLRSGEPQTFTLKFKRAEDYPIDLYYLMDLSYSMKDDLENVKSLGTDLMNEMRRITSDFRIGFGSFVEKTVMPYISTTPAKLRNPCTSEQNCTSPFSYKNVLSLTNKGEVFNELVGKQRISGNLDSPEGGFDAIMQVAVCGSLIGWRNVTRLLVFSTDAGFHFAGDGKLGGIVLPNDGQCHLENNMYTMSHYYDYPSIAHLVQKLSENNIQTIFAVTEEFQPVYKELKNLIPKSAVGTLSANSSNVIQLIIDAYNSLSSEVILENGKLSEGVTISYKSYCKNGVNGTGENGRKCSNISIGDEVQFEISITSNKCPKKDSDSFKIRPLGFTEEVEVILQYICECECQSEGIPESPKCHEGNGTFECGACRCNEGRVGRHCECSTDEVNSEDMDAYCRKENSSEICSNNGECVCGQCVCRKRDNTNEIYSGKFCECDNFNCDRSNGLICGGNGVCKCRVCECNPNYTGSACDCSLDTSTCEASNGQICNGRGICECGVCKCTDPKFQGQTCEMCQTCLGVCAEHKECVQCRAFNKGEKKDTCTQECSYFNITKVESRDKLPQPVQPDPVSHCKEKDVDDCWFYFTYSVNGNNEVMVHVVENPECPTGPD

B1: recombinant soluble TMEM2 extracellular domain, 6x His-tagged (domain or fragment, mouse, UniProt Q5FWI3 104-1383, looked up)
chain: SSKYAPDENCPDQNPRLRNWDPGQDSAKHIVIKEGDLFRLTSDATVDSIVIQDGGLLVFGDDKDGSKNITLRTRYILIQDGGALHIGAEKCRYRSKATITLYGKSDERESMPIFGKKFIGVEAGGTLELHGAQRTSWTMLARTLHSSGLPFGSYAFEKDFSRGLNVRVIDQDTARVLENEKFDTHEYHNESRRLQEFLRAQEPGRIVAIAVGDSAVKSLLQGTIQMIQDRLGSKLIQGLGYRQAWALVGVIDGGSSSCNESVRNYENHSTGGKALAQGEFYTLDGQKFSVTAYSEWSQGISLSGFRVDIADGVKLHLLDDVSTWEAGDRIVVASTDYSMYQAEELTLLRCPECSRSQVKVKEIPQYLHVGEIIDGIDMRAEVGLLTRNIVIQGEMEDSCYAENHCQFFDYDTFGGHVMIEKNFTSVHLSYVELKHMGQQHMGRYPVHFHLCGDVDSKGGYSQPASVDGLSVHHSFSRCITVHGTSGLLIKDTIGFDTLGHCFFLEDGVEQRNILYHNLGLLTKPGTLLPTDRNSSMCTVMRDGVFGNYVPVPTTDCMAVSTFWIAHPNNHLINNAAAGSQDAGIWYLFHKEPTGESSGLQLLEKPELTPLGIFYNNRVHSNFKAGLFVDKGVKTTNASASDPREYLCLDNSARFRPHQDADPEKPRVAAIIDRLIAFKNNDNGAWVRGGDIIVQNSAFADNGKGLTFASDGSFPSDEGSSQEVTESLFVGESRNYGFQGGQNKYMGTGGIDQKPRTLPRNRTFPIRGFQIYDGPIHLTKSTFKKYVPTPDRYSSAIGFLMKNSWQTTPRNNVSLVKFGPQVSLNVFFGKPGPWFEDCELDGDKNSIFHDIDGSVTGYKDTYVGRMDNYLIRHPNCVNVTKWNAVICSGTYAQVYVQTWNTPNLSMIITRDEYPSHPMVLRGINQRAISPQYQPVVMLEKGYTIHWNGPAPRTTFLYLVNFNKDDWIRVGLCYPANTSFQVTVGFLQRQNGSLSRIEDYEPARSMEELQKKPSERKFYFDSGTGLLFLYLRAHSHRDGHSYCSSQGCERVKIQAATDSKDISNCMAKAYPQYYKKPSAVKRMPAMLTGLCQGCGTHQMVFTSDPHKSYLPVRFQSPGKAEIQRGDPSIISVNGTDFTFRSAGALLLIVDACSVPFRVKEKRMFLSADVSHMEEYFKASIPPRSIVLLSTRGEIKQLNISDSLAVLGLAKPAHLYSKGSVVFLGFSGNFAPSWTKLFTSPDEQGLGVLEQFLPLQMEEYGCSRTGSVHRRDLDLLQQALKVL
notes: transmembrane protein 2 (TMEM2; CEMIP2), mouse, extracellular domain Ser104–Leu1383; in pSecTag2A with the C-terminal Myc peptide removed; the vector supplies a secretion leader (surmised); also called TMEM2 ECD; TMEM2–ECD; not shown: His6, C-terminal, kept
Does B1 bind?
Result: binds
